{"source": "the Immune Epitope Database (IEDB)", "data": [{"target": "HLA-A*02:01", "experiment": "IEDB peptide-MHC binding, purified MHC/competitive/radioactivity; ≥ and ≤ were set here for values at or beyond the usual limits of such assays", "settings": "source organism: Toxoplasma gondii GT1", "units": {"IC50": "µM"}, "values": [{"sequence": "ALDINLPNV", "IC50": 0.5}, {"sequence": "GLAETEVPV", "IC50": 0.5}, {"sequence": "YLFKEGVIVV", "IC50": 0.5}, {"sequence": "FVLELEPEWTV", "IC50": 0.01}, {"sequence": "HLMDEAVEV", "IC50": 0.5}, {"sequence": "LLSDLSVRL", "IC50": 0.5}, {"sequence": "MLYAGAPTTV", "IC50": 0.1}, {"sequence": "ALAALAPSLEV", "IC50": 1}, {"sequence": "VMSELEFYL", "IC50": 0.1}, {"sequence": "YLSPIASPLL", "IC50": 0.1}]}]}
